In article PMC10939776:

Tests used:
[1] = molecular target: Copalyl diphosphate synthase from Penicillium fellutanum (PfCPS), full-length wild type (Penicillium fellutanum); assay: SEC
[2] = molecular target: Copalyl diphosphate synthase from Penicillium fellutanum (PfCPS), full-length wild type (Penicillium fellutanum); assay: cryo-EM structure

stoichiometry N [1]: 6
stoichiometry N [2]: 6
Substance: Copalyl diphosphate synthase from Penicillium fellutanum (PfCPS), full-length wild type (enzyme)
